To fix the notation:
B1: SLC35F2 (parent)
chain: FVAFALCMFCLYSFMPLVIKVTSA

The text below walks through data of the supplement of paper PMC10567573.
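Note: lentivirally expressed fusions sorted by FACS into six bins by GFP to DsRed ratio, PSI derived from sequencing read proportions per bin multiplied by bin number.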

Variants of B1 are the subject of this data set. As to the kind of experiment: protein stability index of a GFP-peptide fusion (GPS, HEK-293T) (PSI 1-6); higher = more stable. To be noted: c terminus: a fixed tail appended.
In the case of FVAFALCMFCLYWFMPLVIKVTSA, the protein stability index turned out to be 2.54.
Turning to FVAFALCMFCLYDFMPLVIKVTSA, the protein stability index was found to be 4.24.
Consider FVAFALCMFCLYYFMPLVIKVTSA, for which the protein stability index was 2.33.
In the case of FVAFALCMFCLYNFMPLVIKVTSA, the protein stability index turned out to be 3.33.
Under FVAFALCMFCLYAFMPLVIKVTSA stands 2.08.
Take FVAFALCMFCLYRFMPLVIKVTSA: the protein stability index amounted to 3.03.
Under FVAFALCMFCLYMFMPLVIKVTSA stands 2.54; under FVAFALCMFCLYGFMPLVIKVTSA, 3.42.
In the case of FVAFALCMFCLYCFMPLVIKVTSA, the protein stability index is 2.62.
In the case of FVAFALCMFCLYVFMPLVIKVTSA, the protein stability index amounted to 3.39.
On to FVAFALCMFCLYTFMPLVIKVTSA, for which the protein stability index was found to be 2.97.
For FVAFALCMFCLYKFMPLVIKVTSA, the protein stability index is 3.34.
Under FVAFALCMFCLYPFMPLVIKVTSA stands 2.15.
Turning to FVAFALCMFCLYEFMPLVIKVTSA, the protein stability index was 3.17.
Under FVAFALCMFCLYIFMPLVIKVTSA stands 3.95; under FVAFALCMFCLYFFMPLVIKVTSA, 2.8.
Under FVAFALCMFCLYLFMPLVIKVTSA stands 3.22; under FVAFALCMFCLYQFMPLVIKVTSA, 2.36; under FVAFALCMFCLYHFMPLVIKVTSA, 3.26.
In the case of FVAFALCMFCLYSFGPLVIKVTSA, the protein stability index was 2.42.
As to FVAFALCMFCLYSFCPLVIKVTSA, the protein stability index turned out to be 3.39.
Consider FVAFALCMFCLYSFFPLVIKVTSA, for which the protein stability index turned out to be 3.1.
For the variant FVAFALCMFCLYSFNPLVIKVTSA, the protein stability index came out at 3.43.
With FVAFALCMFCLYSFDPLVIKVTSA, the protein stability index came out at 3.13.
Under FVAFALCMFCLYSFPPLVIKVTSA stands 4.92; under FVAFALCMFCLYSFLPLVIKVTSA, 3.33.
With FVAFALCMFCLYSFRPLVIKVTSA, the protein stability index came to 2.98.
As for FVAFALCMFCLYSFVPLVIKVTSA, the protein stability index came out at 2.71.
As to FVAFALCMFCLYSFQPLVIKVTSA, the protein stability index stood at 3.41.
Regarding FVAFALCMFCLYSFYPLVIKVTSA, the protein stability index stood at 3.23.
In the case of FVAFALCMFCLYSFEPLVIKVTSA, the protein stability index was 2.25.
As for FVAFALCMFCLYSFSPLVIKVTSA, the protein stability index stood at 2.61.
Consider FVAFALCMFCLYSFKPLVIKVTSA, for which the protein stability index was found to be 3.67.
Regarding FVAFALCMFCLYSFHPLVIKVTSA, the protein stability index was 2.97.
Under FVAFALCMFCLYSFTPLVIKVTSA stands 2.83; under FVAFALCMFCLYSFIPLVIKVTSA, 3.14; under FVAFALCMFCLYSFWPLVIKVTSA, 2.1.
For the variant FVAFALCMFPLYSFMPLVIKVTSA, the protein stability index was 2.35.
Regarding FVAFALCMFVLYSFMPLVIKVTSA, the protein stability index worked out at 3.48.
For the variant FVAFALCMFGLYSFMPLVIKVTSA, the protein stability index stood at 2.58.
Regarding FVAFALCMFWLYSFMPLVIKVTSA, the protein stability index was 2.35.
Under FVAFALCMFILYSFMPLVIKVTSA stands 2.27; under FVAFALCMFALYSFMPLVIKVTSA, 2.18; under FVAFALCMFFLYSFMPLVIKVTSA, 3.07.
For the variant FVAFALCMFMLYSFMPLVIKVTSA, the protein stability index came to 2.88.
Consider FVAFALCMFKLYSFMPLVIKVTSA, for which the protein stability index was found to be 2.52.
Under FVAFALCMFDLYSFMPLVIKVTSA stands 3.05; under FVAFALCMFSLYSFMPLVIKVTSA, 3.53; under FVAFALCMFRLYSFMPLVIKVTSA, 3.21.
Under FVAFALCMFYLYSFMPLVIKVTSA stands 2.28; under FVAFALCMFELYSFMPLVIKVTSA, 3.49; under FVAFALCMFQLYSFMPLVIKVTSA, 3.47.
Regarding FVAFALCMFHLYSFMPLVIKVTSA, the protein stability index amounted to 2.75.
For the variant FVAFALCMFLLYSFMPLVIKVTSA, the protein stability index worked out at 2.43.
As for FVAFALCMFTLYSFMPLVIKVTSA, the protein stability index turned out to be 2.52.
For FVAFALCMFNLYSFMPLVIKVTSA, the protein stability index was 2.8.
In the case of FVAFALCMFCLYSFMPLCIKVTSA, the protein stability index turned out to be 3.04.
Under FVAFALCMFCLYSFMPLGIKVTSA stands 3.68.
Turning to FVAFALCMFCLYSFMPLHIKVTSA, the protein stability index is 2.9.
For FVAFALCMFCLYSFMPLKIKVTSA, the protein stability index worked out at 2.63.
Consider FVAFALCMFCLYSFMPLFIKVTSA, for which the protein stability index amounted to 2.85.
Under FVAFALCMFCLYSFMPLMIKVTSA stands 2.51; under FVAFALCMFCLYSFMPLNIKVTSA, 3.17; under FVAFALCMFCLYSFMPLPIKVTSA, 3.36.
With FVAFALCMFCLYSFMPLDIKVTSA, the protein stability index came to 3.27.
On to FVAFALCMFCLYSFMPLQIKVTSA, for which the protein stability index stood at 4.26.
On to FVAFALCMFCLYSFMPLAIKVTSA, for which the protein stability index was determined as 2.91.
For the variant FVAFALCMFCLYSFMPLIIKVTSA, the protein stability index was 2.35.
Under FVAFALCMFCLYSFMPLEIKVTSA stands 2.87; under FVAFALCMFCLYSFMPLLIKVTSA, 2.65; under FVAFALCMFCLSSFMPLVIKVTSA, 3.08.
Under FVAFALCMFCLGSFMPLVIKVTSA stands 3.85; under FVAFALCMFCLNSFMPLVIKVTSA, 3.2; under FVAFALCMFCLTSFMPLVIKVTSA, 2.68.
For FVAFALCMFCLLSFMPLVIKVTSA, the protein stability index amounted to 2.5.
As for FVAFALCMFCLDSFMPLVIKVTSA, the protein stability index amounted to 1.79.
FVAFALCMFCLRSFMPLVIKVTSA: the protein stability index was 2.29.
Under FVAFALCMFCLQSFMPLVIKVTSA stands 3.48.
As to FVAFALCMFCLVSFMPLVIKVTSA, the protein stability index was found to be 2.74.
Under FVAFALCMFCLPSFMPLVIKVTSA stands 2.25; under FVAFALCMFCLCSFMPLVIKVTSA, 2.32; under FVAFALCMFCLFSFMPLVIKVTSA, 2.54.
Regarding FVAFALCMFCLWSFMPLVIKVTSA, the protein stability index was determined as 2.76.
Under FVAFALCMFCLISFMPLVIKVTSA stands 2.31; under FVAFALCMFCLESFMPLVIKVTSA, 3.32; under FVAFALCMFCLMSFMPLVIKVTSA, 2.75.
FVAFALCMFCLKSFMPLVIKVTSA: the protein stability index worked out at 2.74.
As to FVAFALCMFCLASFMPLVIKVTSA, the protein stability index came out at 3.98.
In the case of FVAFALCMFCLHSFMPLVIKVTSA, the protein stability index was 2.47.
As to FVAFALCMFCLYSVMPLVIKVTSA, the protein stability index was found to be 3.79.
Take FVAFALCMFCLYSDMPLVIKVTSA: the protein stability index is 3.53.
In the case of FVAFALCMFCLYSIMPLVIKVTSA, the protein stability index came out at 3.99.
In the case of FVAFALCMFCLYSAMPLVIKVTSA, the protein stability index stood at 2.78.
Under FVAFALCMFCLYSHMPLVIKVTSA stands 3.63.
